Measured values as given in patent US20220064286A1 (Genentech, published 2022).
Read-outs that look alike come from different tables or passages of the source.

B1: rat15C8 (antibody, V domains shown)
VH: EVQLQQSGPELQRPGASVKLSCKASGYTFTEHSIYWLKQRPKQSLEIIGRIDPKNGRTYFVDKFKNRATLTTNTSSNTAYMQLSSLTSEDTAIYFCARIDGFYFDFWGQGVMVTASS
VL: NIHLTQSPSLLSASVGDRVTLSCKGSQNVNKYLVWYQQKLGEAPKLLIYSTDNLQSGIPSRFSGSGSGTDYTLTISSLQPEDAATYFCYQYNNGFTFGSGTKLEIK
notes: SD rat-derived; rat V domains as FR/HVR pieces; also called 1.15C8; Chimeric 1.15C8
B2: 4.1A4 (antibody, V domains shown)
VH: QVQLVQSGSELKKPGASVKVSCKASGYTLTNYPMNWVRQAPGRGLEWMGWINTNTGSPAYAQDFTERFVFSLDTSVTTAYLQISSLKAEDTAVYYCARTAITSVYHFDYWGQGTLVTVSS
VL: DIQLTQSPSFLSASVGDRVTITCRASQGISSYLAWYQQKPGKAPRVLIYGATTLQSGVPSRFSGSESGTEFTLTISSLQPEDLATYYCQKLNSHPCSFGQGTKVEIK
notes: OMT rat-derived human antibody; also called 4.1A4.Q1.C96
B3: 4.1D3.Q1E Fab (Fab, V domains shown)
VH: EVQLQQSGPGLVKPSQTLSLTCAISGDSVSSNSAAWNWIRQSPSRGLEWLGKTYYRFKWYSDYAVSVKGRITINPDTSKNQFSLQLNSVTPEDTAVFYCTRESTTYDLLAGPFDYWGQGTLVTVSS
VL: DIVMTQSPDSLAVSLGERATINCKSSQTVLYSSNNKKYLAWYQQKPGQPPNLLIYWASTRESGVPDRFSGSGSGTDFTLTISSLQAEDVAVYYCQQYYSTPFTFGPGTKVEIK
notes: also called 4.1 D3.Q1E in Fab format
B4: rat10A5 (antibody, V domains shown)
VH: QVSLKESGPGILQPSHTLSLTCSFSGFSLTTYGMGVSWIRQPSEKGLEWLASIWWNGNTYYNPSLRSRLTVSKDTSNDQAFLNVTSVDTTDTATYYCAHTGGAVITWFAYWGQGTLVTVSS
VL: NIVMTQSPKSMSISIGDRVTMNCKASQSVGKNIAWYQQKTGQSPQLLIYYASNRYTGVPDRFTGGGSGTDFTLTINSVQAEDAAFFYCQHIYNSPYPFGTGTKLEIK
notes: SD rat-derived; rat V domains as FR/HVR pieces; also called 1.10A5; Chimeric 1.10A5

Key:
[1] = target: T1, cynomolgus TIGIT on CHO cells (cynomolgus monkey, UniProt A0A7N9I9V4 89-312); assay: FACS blocking assay: labelled PVR-Fc (blocked ligand) on CHO cells expressing cyno TIGIT
T1 construct: whole, on cells; also called CHO-cyTIGIT; cyTIGIT
Experimental: (§1) These studies were further validated in CHO-TIGIT PVR blocking experiments in which TIGIT-expressing CHO cells were incubated with labeled PVR-Fc fusion protein in the presence of anti-TIGIT antibody or an human IgG1 control (FIG. 4A).

[2] = target: T1, cynomolgus TIGIT on CHO cells; assay: FACS on CHO cells expressing cyno TIGIT, FITC anti-hIgG detection
Experimental: (§2) Additional in vitro binding studies of the OMT- and SD-derived anti-TIGIT antibody clones were conducted. The OMT- and SD-derived anti-TIGIT clones were tested for binding to human and cyno TIGIT expressed on the surface of CHO cells by FACS analysis. CHO cells were transfected with full-length human TIGIT (CHO-hTIGIT) or cynomologous TIGIT (CHO-cyTIGIT). The TIGIT-expressing CHO cells were incubated with each anti-TIGIT antibody at the indicated concentrations and then detected via a FITC-labeled anti-hIgG antibody (see FIG. 1A) using standard methods. The results, shown in Table 6 and FIGS. 1B-1E, corroborate the results from the BIACORE™ analysis, described above.

[3] = target: T2, cynomolgus monkey (cyno) TIGIT protein (cynomolgus monkey, UniProt A0A7N9I9V4 89-209); assay: SPR, captured mAb
human TIGIT protein [4] = target: T3, human TIGIT protein (human, UniProt Q495A1 22-141, limits assumed); assay: SPR, captured mAb
T3 construct: Recombinant protein (Genentech) used in ELISA screening and as SPR analyte; also called TIGIT antigen
T3 sequence: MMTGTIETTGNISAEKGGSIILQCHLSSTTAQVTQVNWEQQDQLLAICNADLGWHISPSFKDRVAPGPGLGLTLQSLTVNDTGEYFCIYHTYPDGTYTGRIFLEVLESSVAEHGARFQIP

[5] = target: T2, cynomolgus monkey (cyno) TIGIT protein; assay: SPR, bivalent affinity
human TIGIT protein [6] = target: T3, human TIGIT protein; assay: SPR, bivalent affinity
[7] = target: T4, full-length human TIGIT on CHO cells (human, UniProt Q495A1 22-244); assay: FACS on CHO cells expressing human TIGIT, FITC anti-hIgG detection
T4 construct: also called CHO-hTIGIT; hu TIGIT
T4 sequence: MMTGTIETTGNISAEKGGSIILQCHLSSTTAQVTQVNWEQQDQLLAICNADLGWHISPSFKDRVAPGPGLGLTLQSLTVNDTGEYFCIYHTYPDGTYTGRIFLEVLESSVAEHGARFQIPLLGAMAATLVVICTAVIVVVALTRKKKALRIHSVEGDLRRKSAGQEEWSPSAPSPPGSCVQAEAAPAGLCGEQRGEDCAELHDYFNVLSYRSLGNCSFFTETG
Experimental: as §2

[8] = target: T2, cynomolgus monkey (cyno) TIGIT protein; assay: SPR, monovalent affinity
human TIGIT protein [9] = target: T3, human TIGIT protein; assay: SPR, monovalent affinity
[10] = target: T4, full-length human TIGIT on CHO cells; assay: FACS blocking assay: labelled PVR-Fc (blocked ligand) on CHO cells expressing human TIGIT
Experimental: as §1

[11] = target: T5, human TIGIT on activated human primary T cells (human, UniProt Q495A1 22-244); assay: FACS on activated human PBMC, CD4 T cells, FITC anti-hIgG detection
T5 construct: also called Human T cell
T5 sequence: T4 sequence
Experimental: The OMT- and SD-derived anti-TIGIT clones were also tested for binding to human primary T cells by FACS analysis. Human PBMC were activated for with plate-bound anti-CD3 (5 μg/ml) and soluble anti-CD28 (2 μg/ml) for 2 days as described in Yu et al. Nature Immunology. 10: 48-57, 2009, which is incorporated herein by reference in its entirety. Cells were then washed and incubated with incubated with each anti-TIGIT antibody at the indicated concentrations and then detected via a FITC-labeled anti-hIgG antibody. Cells were also stained with anti-CD4, anti-CD8, and anti-CD25 (BD bioscience). Human CD4+(CD25+CD4+) and human CD8+(CD25+CD8+) T cells were assessed for binding by the anti-TIGIT clones by FACS. All samples were acquired on LSR-II or LSR-Fortessa instruments (BD Biosciences) and analyzed using FlowJo software (Treestar).

[12] = target: T2, cynomolgus monkey (cyno) TIGIT protein; assay: SPR, captured mAb; remark: listed apart in the source
Excerpt: (§3) To prevent unwanted pyroglutamate formation for clones 4.1A4, 4.1 D3, and 7.4A3 (also referred to as 1A4, 1 D3, and 4A3, respectively) and to resolve the issue of unpaired cysteine residues for clones 4.1A4 and 7.4A3, the following optimized anti-TIGIT antibody variants were generated: 4.1A4.C96S.Q1E, 4.1A4.C96Y.Q1E, 4.1 D3.Q1E, 7.4A3.C96S.Q1E, and 7.4A3.C96Y.Q1E (also referred to as 1A4.C96S.Q1E, 1A4.C96Y.Q1E, 1 D3.Q1E, 4A3.C96S.Q1E, and 4A3.C96Y.Q1E, respectively). As described below in Table 2, the affinities of these five optimized variants for human and cynomolgus monkey (cyno) TIGIT were then determined by Surface Plasmon Resonance (SRP) (BIACORE™ analysis) and compared to that of their respective parental clones.
(§4) Briefly, a series S CM5 biosensor chip was activated with N-ethyl-N′-(3-dimethylaminopropyl)-carbodiimide hydrochloride (EDC) and N-hydroxysuccinimide (NHS) reagents according to the supplier's (GE Healthcare Biosciences, Piscataway, N.J.) instructions, and a human antibody capture kit was applied to couple goat anti-human Fc IgGs in order to achieve approximately 10,000 response units (RU) on each flow cell, followed by blocking un-reacted groups with 1M ethanolamine.
(§5) (flow rate: 30 μl/min) with no regeneration between injections. The sensorgrams were recorded and evaluated by BIAcore™ T200 Evaluation Software (version 2.0) after subtraction of reference cell signal. Association rates (kₒₙ) and dissociation rates (koff) were calculated using a simple one-to-one Langmuir binding model. The equilibrium dissociation constant (KD) was calculated as the ratio koff/kₒₙ.

human TIGIT protein [13] = target: T3, human TIGIT protein; assay: SPR, captured mAb; remark: listed apart in the source
Excerpt: as §3, §4, §5

mouse TIGIT-His = target: T6, mouse TIGIT-His (mouse, UniProt P86176 29-148, limits assumed); assay: Block ELISA Mouse PVR-Fc:TIGIT-His (blocked ligand mouse PVR-Fc)
T6 sequence (looked up): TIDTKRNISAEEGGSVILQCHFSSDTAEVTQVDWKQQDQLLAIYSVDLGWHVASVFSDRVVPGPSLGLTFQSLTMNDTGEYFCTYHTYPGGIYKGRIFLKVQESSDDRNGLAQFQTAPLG
Experimental: (§6) To test for the ability of the clones to block the TIGIT-PVR interaction, a blocking ELISA assay was used. Briefly, recombinant human PVR-Fc fusion protein, cynomolgus monkey PVR-Fc fusion protein, or mouse PVR-Fc fusion protein was coated at 4 μg/ml at 25 μl/well in phosphate-buffered saline (PBS, pH 7.0) onto 384-well Maxisorp microtiter plates (NUNC, Denmark) and incubated overnight at 4° C. The coating solution was then discarded and the plate was blocked using 0.5% bovine serum albumin (BSA) in PBS at 80 μl/well and incubated with gentle agitation for 1 hour. Titration curves of anti-TIGIT and Fab isotype control antibodies were diluted in assay buffer (PBS, 0.5% BSA, 0.05% Tween 20) using 12 serial 2.5-fold dilutions (40000-1.7 ng/mL). […] The plate was then washed 6× with wash buffer and bound human TIGIT-AviFlag-biotin, cyno TIGIT-AviFlag-biotin, or mouse TIGIT-His was detected by adding 25 μl/well of horseradish peroxidase-conjugated streptavidin (1:10000, Amersham, UK) or horseradish peroxidase-conjugated mouse anti-His (1:2500, Qiagen, Germany) diluted in assay buffer. […] Absorbance was read at 450 nm on a […] ASCENT® microtiter plate reader (Thermo Labsystems, Helsinki, Finland). Fit curves were plotted from the resulting optical density values from the ELISA plates and IC50s were calculated using Genedata Screener software (Genedata, Switzerland).

[14] = target: T7, human TIGIT-AviFlag-biotin (human, UniProt Q495A1 22-141, biotin); assay: Block ELISA Human PVR-Fc:Bio-TIGIT-AviFlag (blocked ligand human PVR-Fc)
T7 sequence: T3 sequence
Experimental: as §6

[15] = target: T8, cynomolgus TIGIT-AviFlag-biotin (cynomolgus monkey, UniProt A0A7N9I9V4 89-209, biotin); assay: Block ELISA Cyno PVR-Fc:Bio-TIGIT-AviFlag (blocked ligand cyno PVR-Fc)
T8 construct: also called cyno TIGIT-AviFlag-biotin
Experimental: as §6

T2 sequence (A0A7N9I9V4 entry or part of it): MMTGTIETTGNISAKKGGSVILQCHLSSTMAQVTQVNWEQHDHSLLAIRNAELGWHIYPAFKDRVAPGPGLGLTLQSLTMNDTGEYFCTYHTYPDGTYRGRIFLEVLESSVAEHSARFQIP
T1 sequence (A0A7N9I9V4 entry or part of it): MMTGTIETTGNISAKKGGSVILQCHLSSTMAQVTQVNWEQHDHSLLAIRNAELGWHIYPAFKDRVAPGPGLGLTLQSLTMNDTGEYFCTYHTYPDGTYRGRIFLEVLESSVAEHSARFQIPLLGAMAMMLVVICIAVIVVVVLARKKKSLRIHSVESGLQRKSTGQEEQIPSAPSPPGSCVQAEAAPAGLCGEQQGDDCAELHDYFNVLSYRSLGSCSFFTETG

Binder	IC50 (read off the curve) [1] [nM]	EC50 (read off the curve) [2] [nM]	Kd [3] [nM]	koff [3] [s⁻¹]	kon [3] [M⁻¹ s⁻¹]	Kd (human TIGIT protein [4]) [nM]	koff (human TIGIT protein [4]) [s⁻¹]	kon (human TIGIT protein [4]) [M⁻¹ s⁻¹]	Kd [5] [nM]	Kd (human TIGIT protein [6]) [nM]	EC50 (read off the curve) [7] [nM]	Kd [8] [nM]	Kd (human TIGIT protein [9]) [nM]	IC50 (read off the curve) [10] [nM]	EC50 (read off the curve) [11] [nM]	also measured
B1	~0.3	~0.4	0.25	9.6e-05	381000	0.03	1.8e-05	522000	≤ 0.013	≤ 0.007	~0.3	0.25	0.034	~0.4	–	–
B2	–	~0.8	–	–	–	–	–	–	0.035	0.31	~1	2.6	4.9	~0.2	~0.5	Kd [12]: 2.42 nM; koff [12]: 0.000643 s⁻¹; kon [12]: 266000 M⁻¹ s⁻¹; Kd (human TIGIT protein [13]): 3.57 nM; koff (human TIGIT protein [13]): 0.00122 s⁻¹; kon (human TIGIT protein [13]): 342000 M⁻¹ s⁻¹
B3	–	–	–	–	–	–	–	–	–	–	–	–	–	–	–	IC50 (mouse TIGIT-His): > 133 nM; IC50 [14]: 6.9 nM; IC50 [15]: 1.5 nM
B4	~0.09	~0.2	0.41	0.000281	678000	0.09	8.4e-05	905000	0.013	≤ 0.003	~0.2	0.41	0.093	–	~0.09	–
